Results reported in doi:10.1101/2025.03.19.644124.

How the values were obtained:
Test in all cases: BLI
[1] = target: biotinylated PpBRCA2-BRC4 peptide (Physcomitrium patens)
[2] = target: biotinylated PpBRCA2-BRC1 peptide (Physcomitrium patens)
[3] = target: biotinylated PpBRCA2-BRC2 peptide (Physcomitrium patens)
[4] = target: 6His-PpBRCA2-Cter (amino acids 251 to 391) (Physcomitrium patens)

recombinant PpRAD51-2, tag-free (natural protein)
Kd [1]: 400 nM
Kd [2]: 400 nM
Kd [3]: 800 nM
Kd [4]: 4.3 nM
